Test results taken from patent US20140255414A1 (PROBIODRUG, published 2014).
Square brackets hold non-standard residues; d marks the D form. pGlu = O=C1CC[C@@H](C(=O)O)N1; PEG = not defined here

Key:
[1] = target: T1, Aβ(pE11-30) peptide (N-terminal pyroglutamate (Aβ position 11)); test: SPR (Biacore 3000), purified antibody 0.04-10 µg/ml, 30 µl/min for 300 s, CM5 chip with immobilized Aβ(pE11-30); signal taken at the end of the dissociation phase, non-coated flow cell subtracted
T1 construct: Synthesized peptide; Amine-coupled to a CM5 chip for SPR, or adsorbed to the microplate for the direct ELISA
T1 peptide: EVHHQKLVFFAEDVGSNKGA
Description: Then the coupling of peptide followed. At first 10 μg/ml peptide Aβ(pE11-30) in 10 mM potassiumdihydrogenorthophosphate pH 6 was injected with a flow rate of 10 μl/min for 5 min. Because of the low signal rise the peptide was applied again with a higher concentration diluted in a solution with pH 5. 50 μg/ml peptide Aβ(pE11-30) in 10 mM sodium acetate pH 5 was injected with a flow rate of 10 μl/min for 20 min. A mild acid pH was chosen for coupling to provide a pre-concentration of the peptide (positive net charge) at the sensor surface (carboxyl group negative net charge) by electrostatic attraction. The covalent bond of the peptide was formed by the reaction of the two amino acids lysine (at peptide position 16 and 28) with the activated carboxyl group at chip surface. Excess reactive ester groups were deactivated with 1 M ethanolamine pH 8.5 with a flow rate of 10 μl/min for 10 min. Non-immobilized peptides were removed by injection of 0.1 M HCl (3×10 μl) and subsequently the chip was rinsed over night with running buffer. At the end the signal was about 1000 Response Units (RU) whereby the chip surface was saturated with the peptide.
For the measurement of anti Aβ11(pE) antibody concentration a CM5 chip, which was coated with Aβ(pE11-30) was used. The chip surface was saturated with the peptide and the signal was about 1000 Response Units (RU) (see section 1.3.3.1). […]

[2] = target: T2, Aβ(pE11-18)-PEG peptide (reading uncertain); test: ITC at 20 °C, peptide titrated into antibody eluted with KSCN gradient
T2 construct: The PEG attachment is not described further
T2 peptide: [pGlu]VHHQKLV-{PEG}
Description: The measurement of heat of reaction was performed at 20° C. Furthermore the heat of reaction was determined which was only generated by dilution of the antigen through the titration into ITC buffer (pH=7.1). Therefore the antigen was injected into the sample cell filled with ITC buffer. The heat of reaction which was generated during the titration of the antigen to the antibody was corrected about this value. The analysis of raw data and the determination of the association constant (KA), reaction stoichiometry (n), binding enthalpy (ΔH) and entropy (ΔS) was performed with Origin Software of MicroCal.
To characterize the binding of anti Aβ11(pE) antibody at the Aβ(pE11-18)-PEG peptide the method of Isothermal Titration calorimetry (ITC) was used (see section 1.3.4). The antibody which was eluted from protein G column with KSCN-gradient (pH 7.0) and 0.1 M glycine-HCl (pH 2.7) was analyzed. With ITC the reaction stoichiometry (N), association constant (KA), binding enthalpy (ΔH) as well as the entropy (ΔS) were determined. The peptide was titrated to anti Aβ11(pE) antibody in the ITC MicroCalorimeter as described in section 1.3.4.2. […] The reaction partners interact and heat is released or absorbed in direct proportion to the amount of binding events. Each injection of antigen leads to change of temperature. To compensate the temperature difference between the sample and reference cell the addition or removal of heat to the sample cell occurs and serves as measurement signal.
At first the heat of the Aβ(pE11-18)-PEG dilution in ITC buffer was determined (see FIG. 16, upper trace). […] Afterwards the peptide Aβ(pE11-18)-PEG was titrated to anti Aβ11(pE) antibody in the sample cell (see FIG. 16, lower trace). The total heat release after each injection was determined by integration of the area between each peak and baseline. Then the heat of dilution (see FIG. 16, upper trace) was subtracted from the total heat release of each injection.

- EC50 (read off the curve) [1]: ~1 mg/L
- -TΔS [2]: -5.31 kJ/mol
- Ka [2]: 1.27e+07 M⁻¹
- Stoichiometry (N) [2]: 1.88
B1: monoclonal mouse anti Aβ11(pE) antibody Aβ 13-11-6 (clone 13), Deposit No. DSM ACC 3100 (antibody, V domains shown)
VH: QVQLQQPGTELVKPGASVKLSCKASGFTFTSYWMHWVRQRPGQGLEWIGEINPSNGRTNYNEKFKSKATLTVDKSSSTAYMQLSSLTSEDSEVYYCARGDLAWDWSAYWGQGTLVTVSA
VL: DIVMSQSPSSLAVSAGEKVTMSCKSSQSLFYSRTRKNYLAWYQQKPGQSPKLLIYWASTRESGVPDRFTGSGSGTDFTLTISSVQAEDLAVYYCKQSYNLWSFGGGTKLEIKR
notes: The KSCN-eluted and glycine-HCl-eluted preparations are the same molecule; also called pEVHH-59025 13-11-6; mAb mouse anti Aβ11(pE)
